# US20100146651, “MEGANUCLEASE VARIANTS CLEAVING A DNA TARGET SEQUENCE FROM THE HPRT GENE AND USES THEREOF” (CELLECTIS, published 2010)
# Where a chain is given by its changes, count along the chain named.
# T1: HprCH3.3 G19S/HprCH3.4 heterodimer (synthetic, UniProt P05725;P05725 SEQ:1-163,SEQ:1-163, G19S in first chain)
# T1 sequence 1: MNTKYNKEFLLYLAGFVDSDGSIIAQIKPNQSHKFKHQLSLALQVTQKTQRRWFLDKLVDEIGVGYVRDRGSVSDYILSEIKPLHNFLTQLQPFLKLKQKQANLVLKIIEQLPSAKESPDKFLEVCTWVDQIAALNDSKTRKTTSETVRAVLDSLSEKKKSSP
# T1 sequence 2: T1 sequence 1 with S19G, S32T, A42T, L43F, Q44R, R68Y, R70S, S72T, D75N, I77N
# T2: HprCH3.3/HprCH3.4 G19S heterodimer (synthetic, UniProt P05725;P05725 SEQ:1-163,SEQ:1-163, G19S in second chain)
# T2 sequence 1: T1 sequence 1 with S19G
# T2 sequence 2: T1 sequence 1 with S32T, A42T, L43F, Q44R, R68Y, R70S, S72T, D75N, I77N
# T3: HprCH3.3/HprCH3.4 heterodimer (KNSHQS/QRRDI/42A43L + KNTHQS/RYSNN/72T) (synthetic, UniProt P05725;P05725 SEQ:1-163,SEQ:1-163)
# T3 chain 1: T1 sequence 1 with S19G
# T3 chain 2: T1 sequence 1 with S19G, S32T, A42T, L43F, Q44R, R68Y, R70S, S72T, D75N, I77N
# B1: HprCH3 (dsDNA)
# DNA 1: CGAGATGTCATGAAAGAGATGG
# DNA 2: CCATCTCTTTCATGACATCTCG
# Tests used:
# Experiment in all cases: cell_activity; CHO chromosomal reporter, maximum
# [1] = molecular target: T1, HprCH3.3 G19S/HprCH3.4 heterodimer
# Description: (§1) To evaluate the cleavage activity of the original and G19S derived mutants a chromosomal reporter system in CHO cells was used (FIG. 20). In this system a single-copy LacZ gene driven by the CMV promoter is interrupted by the HprCH3 site and is thus non-functional. The transfection of the cell line with CHO expression plasmids for HprCH3.3/HprCH3.4 and a LacZ repair plasmid allows the restoration of a functional LacZ gene by homologous recombination. It has previously been shown that double-strand breaks can induce homologous recombination; therefore the frequency with which the LacZ gene is repaired is indicative of the cleavage efficiency of the genomic HprCH3 target site.
# (§2) CHO cell lines harbouring the reporter system were seeded at a density of 2×10⁵ cells per 10 cm dish in complete medium (Kaighn's modified F-12 medium (F12-K), supplemented with 2 mM L-glutamine, penicillin (100 UI/ml), streptomycin (100 μg/ml), amphotericin B (Fongizone) (0.25 μg/ml) (INVITROGEN-LIFE SCIENCE) and 10% FBS (SIGMA-ALDRICH CHIMIE). The next day, cells were transfected with Polyfect transfection reagent (QIAGEN). Briefly, 2 μg of lacz repair matrix vector was co-transfected with various amounts of meganucleases expression vectors. After 72 hours of incubation at 37° C., cells were fixed in 0.5% glutaraldehyde at 4° C. for 10 min, washed twice in 100 mM phosphate buffer with 0.02% NP40 and stained with the following staining buffer (10 mM Phosphate buffer, 1 mM MgCl₂, 33 mM K hexacyanoferrate (III), 33 mM K hexacyanoferrate (II), 0.1% (v/v) X-Gal). After, an overnight incubation at 37° C., plates were examined under a light microscope and the number of LacZ positive cell clones counted. The frequency of LacZ repair is expressed as the number of LacZ+ foci divided by the number of transfected cells (5×10⁵) and corrected by the transfection efficiency.
# [2] = molecular target: T2, HprCH3.3/HprCH3.4 G19S heterodimer
# Description: as §1, §2
# [3] = molecular target: T3, HprCH3.3/HprCH3.4 heterodimer …
# Description: as §1, §2
binder,measurement,setting,value
B1,activity,[1],0.0115 LacZ repair frequency
same,activity,[2],0.012 LacZ repair frequency
same,activity,[3],0.002 LacZ repair frequency
